Laboratory results: patent US20220152100A1, “METHODS FOR CONTROLLED ACTIVATION OR ELIMINATION OF THERAPEUTIC CELLS” (Bellicum Pharmaceuticals, Inc., priority 2014, published 2022)

System: HEK293T/16 cells
Test: SEAP-based surrogate killing assay of iCasp9 mutants
Type: cell-based, human
Conditions: for effect on basal / catalytic activity: in words, versus wild type
Protocol: Early passage HEK293T/16 cells (ATCC, Manassas, Va.) were maintained in IMDM, GlutaMAX™ (Life Technologies, Carlsbad, Calif.) supplemented with 10% FBS, 100 U/mL penicillin, and 100 […] until transfection in a humidified, 37° C., 5% CO2/95% air atmosphere. Cells in logarithmic-phase growth were transiently transfected with 800 ng to 2 μg of expression plasmid encoding iCasp9 mutants and 500 ng of an expression plasmid encoding SRα promoter driven SEAP per million cells in 15-mL conical tubes. […] GeneJammer® Transfection Reagent at a ratio of 3 μl per ug of plasmid DNA was used to transiently transfect HEK293T/16 cells in the absence of antibiotics. 100 μl or 2 mL of the transfection mixture was added to each well in 96-well or 6-well plate, respectively.
Briefly, after 65° C. heat denaturation for 45 minutes to reduce background caused by endogenous (and serum-derived) alkaline phosphatases that are sensitive to heat, 5 μl of supernatants was added to 95 μl of PBS and added to 100 μl of substrate buffer, containing 1 μl of 100 mM 4-methylumbelliferyl phosphate (4-MUP; Sigma, St. Louis, Mo.) re-suspended in 2 M diethanolamine. Hydrolysis of 4-MUP by SEAP produces a fluorescent […] with excitation/emission (355/460 nm), which can be easily measured. Assays were performed in black opaque 96-well plates to minimize fluorescence leakage between wells. […] of the mixture was seeded onto each well of a 96-well plate. […] For the assay, 4-methylumbelliferyl phosphate substrate was hydrolyzed by SEAP to 4-methylumbelliferon, a metabolite that can be excited with 364 nm and detected with an emission filter of 448 nm. Since SEAP is used as a marker for cell viability, reduced SEAP reading corresponds with increased iCaspase-9 activities.

| Molecule | relative SEAP activity Units (basal, without AP1903) (1 μg iCasp9 per million cells) | relative SEAP activity Units (basal, without AP1903) (2 μg iCasp9 per million cells) | effect on basal / catalytic activity |
| --- | --- | --- | --- |
| D330A-N405Q: chimeric modified Caspase-9 polypeptide, double mutant, SEQ ID NO: 28 (protein) GFGDVGALESLRGNADLAYILSMEPCGHCLIINNVNFCRESGLRTRTGSNIDCEKLRRRFSSLHFMVEVKGDLTAKKMVLALLELARQDHGALDCCVVVILSHGCQASHLQFPGAVYGTDGCPVSVEKIVNIFNGTSCPSLGGKPKLFFIQACGGEQKDHGFEVASTSPEDESPGSNPEPDATPFQEGLRTFDQLAAISSLPTPSDIFVSYSTFPGFVSWRDPKSGSWYVETLDDIFEQWAHSEDLQSLLLRVANAVSVKGIYKQMPGCFQFLRKKLFFKTS | 205772 | 174366 | intermediate |
| N405A: chimeric modified Caspase-9 polypeptide (protein, UniProt P55211 1-416, looked up, variant N405A, chimeric, fused to dimerization domain, chimeric modified Caspase-9 polypeptide) MDEADRRLLRRCRLRLVEELQVDQLWDALLSRELFRPHMIEDIQRAGSGSRRDQARQLIIDLETRGSQALPLFISCLEDTGQDMLASFLRTNRQAAKLSKPTLENLTPVVLRPEIRKPEVLRPETPRPVDIGSGGFGDVGALESLRGNADLAYILSMEPCGHCLIINNVNFCRESGLRTRTGSNIDCEKLRRRFSSLHFMVEVKGDLTAKKMVLALLELAQQDHGALDCCVVVILSHGCQASHLQFPGAVYGTDGCPVSVEKIVNIFNGTSCPSLGGKPKLFFIQACGGEQKDHGFEVASTSPEDESPGSNPEPDATPFQEGLRTFDQLDAISSLPTPSDIFVSYSTFPGFVSWRDPKSGSWYVETLDDIFEQWAHSEDLQSLLLRVANAVSVKGIYKQMPGCFAFLRKKLFFKTS |  |  | no effect |
| G402Y: chimeric modified Caspase-9 polypeptide (protein, UniProt P55211 1-416, looked up, variant G402Y, chimeric, fused to dimerization domain, chimeric modified Caspase-9 polypeptide) MDEADRRLLRRCRLRLVEELQVDQLWDALLSRELFRPHMIEDIQRAGSGSRRDQARQLIIDLETRGSQALPLFISCLEDTGQDMLASFLRTNRQAAKLSKPTLENLTPVVLRPEIRKPEVLRPETPRPVDIGSGGFGDVGALESLRGNADLAYILSMEPCGHCLIINNVNFCRESGLRTRTGSNIDCEKLRRRFSSLHFMVEVKGDLTAKKMVLALLELAQQDHGALDCCVVVILSHGCQASHLQFPGAVYGTDGCPVSVEKIVNIFNGTSCPSLGGKPKLFFIQACGGEQKDHGFEVASTSPEDESPGSNPEPDATPFQEGLRTFDQLDAISSLPTPSDIFVSYSTFPGFVSWRDPKSGSWYVETLDDIFEQWAHSEDLQSLLLRVANAVSVKGIYKQMPYCFNFLRKKLFFKTS |  |  | catalytically inactive |
| G402I: chimeric modified Caspase-9 polypeptide (protein, UniProt P55211 1-416, looked up, variant G402I, chimeric, fused to dimerization domain, chimeric modified Caspase-9 polypeptide) MDEADRRLLRRCRLRLVEELQVDQLWDALLSRELFRPHMIEDIQRAGSGSRRDQARQLIIDLETRGSQALPLFISCLEDTGQDMLASFLRTNRQAAKLSKPTLENLTPVVLRPEIRKPEVLRPETPRPVDIGSGGFGDVGALESLRGNADLAYILSMEPCGHCLIINNVNFCRESGLRTRTGSNIDCEKLRRRFSSLHFMVEVKGDLTAKKMVLALLELAQQDHGALDCCVVVILSHGCQASHLQFPGAVYGTDGCPVSVEKIVNIFNGTSCPSLGGKPKLFFIQACGGEQKDHGFEVASTSPEDESPGSNPEPDATPFQEGLRTFDQLDAISSLPTPSDIFVSYSTFPGFVSWRDPKSGSWYVETLDDIFEQWAHSEDLQSLLLRVANAVSVKGIYKQMPICFNFLRKKLFFKTS |  |  | catalytically inactive |
| ^402GCFNF^406AAAAA: Caspase-9 with dimerization residues 402-406 replaced by AAAAA (protein, UniProt P55211 1-416, looked up, variant G402A C403A F404A N405A F406A) MDEADRRLLRRCRLRLVEELQVDQLWDALLSRELFRPHMIEDIQRAGSGSRRDQARQLIIDLETRGSQALPLFISCLEDTGQDMLASFLRTNRQAAKLSKPTLENLTPVVLRPEIRKPEVLRPETPRPVDIGSGGFGDVGALESLRGNADLAYILSMEPCGHCLIINNVNFCRESGLRTRTGSNIDCEKLRRRFSSLHFMVEVKGDLTAKKMVLALLELAQQDHGALDCCVVVILSHGCQASHLQFPGAVYGTDGCPVSVEKIVNIFNGTSCPSLGGKPKLFFIQACGGEQKDHGFEVASTSPEDESPGSNPEPDATPFQEGLRTFDQLDAISSLPTPSDIFVSYSTFPGFVSWRDPKSGSWYVETLDDIFEQWAHSEDLQSLLLRVANAVSVKGIYKQMPAAAAALRKKLFFKTS |  |  | catalytically inactive |
| ^402GCFNF^406ISAQT (Casp-10): Caspase-9 with dimerization residues 402-406 replaced by those of Caspase-10 (protein, UniProt P55211 1-416, looked up, variant G402I C403S F404A N405Q F406T, Caspase-10 dimerization residues swapped in) MDEADRRLLRRCRLRLVEELQVDQLWDALLSRELFRPHMIEDIQRAGSGSRRDQARQLIIDLETRGSQALPLFISCLEDTGQDMLASFLRTNRQAAKLSKPTLENLTPVVLRPEIRKPEVLRPETPRPVDIGSGGFGDVGALESLRGNADLAYILSMEPCGHCLIINNVNFCRESGLRTRTGSNIDCEKLRRRFSSLHFMVEVKGDLTAKKMVLALLELAQQDHGALDCCVVVILSHGCQASHLQFPGAVYGTDGCPVSVEKIVNIFNGTSCPSLGGKPKLFFIQACGGEQKDHGFEVASTSPEDESPGSNPEPDATPFQEGLRTFDQLDAISSLPTPSDIFVSYSTFPGFVSWRDPKSGSWYVETLDDIFEQWAHSEDLQSLLLRVANAVSVKGIYKQMPISAQTLRKKLFFKTS |  |  | reduced basal activity but higher IC50 |
| C403P: chimeric modified Caspase-9 polypeptide (protein, UniProt P55211 1-416, looked up, variant C403P, chimeric, fused to dimerization domain, chimeric modified Caspase-9 polypeptide) MDEADRRLLRRCRLRLVEELQVDQLWDALLSRELFRPHMIEDIQRAGSGSRRDQARQLIIDLETRGSQALPLFISCLEDTGQDMLASFLRTNRQAAKLSKPTLENLTPVVLRPEIRKPEVLRPETPRPVDIGSGGFGDVGALESLRGNADLAYILSMEPCGHCLIINNVNFCRESGLRTRTGSNIDCEKLRRRFSSLHFMVEVKGDLTAKKMVLALLELAQQDHGALDCCVVVILSHGCQASHLQFPGAVYGTDGCPVSVEKIVNIFNGTSCPSLGGKPKLFFIQACGGEQKDHGFEVASTSPEDESPGSNPEPDATPFQEGLRTFDQLDAISSLPTPSDIFVSYSTFPGFVSWRDPKSGSWYVETLDDIFEQWAHSEDLQSLLLRVANAVSVKGIYKQMPGPFNFLRKKLFFKTS |  |  | catalytically inactive |
| N405F: chimeric modified Caspase-9 polypeptide (protein, UniProt P55211 1-416, looked up, variant N405F, chimeric, fused to dimerization domain, chimeric modified Caspase-9 polypeptide) MDEADRRLLRRCRLRLVEELQVDQLWDALLSRELFRPHMIEDIQRAGSGSRRDQARQLIIDLETRGSQALPLFISCLEDTGQDMLASFLRTNRQAAKLSKPTLENLTPVVLRPEIRKPEVLRPETPRPVDIGSGGFGDVGALESLRGNADLAYILSMEPCGHCLIINNVNFCRESGLRTRTGSNIDCEKLRRRFSSLHFMVEVKGDLTAKKMVLALLELAQQDHGALDCCVVVILSHGCQASHLQFPGAVYGTDGCPVSVEKIVNIFNGTSCPSLGGKPKLFFIQACGGEQKDHGFEVASTSPEDESPGSNPEPDATPFQEGLRTFDQLDAISSLPTPSDIFVSYSTFPGFVSWRDPKSGSWYVETLDDIFEQWAHSEDLQSLLLRVANAVSVKGIYKQMPGCFFFLRKKLFFKTS |  |  | lowered basal activity |
